# B1: B-E8 (IL-6 neutralizing benchmark antibody) (antibody, from another filing, V domains shown)
# VH: QVTLKESGPGILKPSQTLSLTCSFSGFSLSTSGMGVGWIRQPSGKGLEWLAHIWWDDDKYYNPSLKSQLTISKDTSRNQVFLKITSVDTADTATYYCARSYDDYLYYALDYWGQGTSVTVSS
# VL: DIVMTQSPATLSVTPGDRVSLSCRASQSISDYLHWYQQKSHESPRLLIKSVSQSISGIPSRFSGSGSGSDFTLSINSVEPEDVGVYYCQNGHSFPLTFGAGTKLELK
# B2: Fab 24A3 (Fab, V domains shown)
# VH: QVQVQESGGGLVQPGGSLRLSCAASGFTFSNYAMSWVRQAPGKGLEWVSGISFRGGMISYVDSVKGRFTISRDNAKNTLYLQMNSLKPEDTAVYYCAKNSGSSRSNALDAWGQGTLVTVSS
# VL: LNFMLTQPPSVSGSPGQKFTIRCTGSFRSDSYVNWYQQLPGTAPKLLINYDDRRVSGVPSRFSGSKSGNSASLTIDGLQAEDEAEYYCSFWDHTFGGHVFGGGTKLTVLG
# notes: Fab; also called 28f10(24A3)
# B3: Fab 28B6 (Fab, V domains shown)
# VH: QVQLVESGGGLVQPGGSLRLSCAASGFTFSNYYMTWVRQAPGKGLEWVSSIYSFSGDTAYADSVKGRFTISRDNAKNTLYLQMNSLKSEDTAVYYCTRNLGGVVVTTNGYDYWGQGTQVTVSS
# VL: DIQLTQSPSSLSASLGDRVTITCQASQSISTELSWYQQKPGQTPKLLIYGASRLQTGVPARFSGSGSGTSFTLTISGLEAEDLATYYCLQDYSWPYSFGSGTRL
# notes: Fab; also called 28f3(28B6)
# B4: 129D3 (germlined variant of 68F2), full-length IgG1 (antibody, V domains shown)
# VH: EVQLQESGPGLVKPSQTLSLTCTVSGGSITSRYYAWSWIRQPPGKGLEWIGVIDYDGDTYYSPSLKSRVSISWDTSKNQFSLKLSSVTPADTAVYYCARDPDVVTGFHYDYWGQGTMVTVSS
# VL: QSALTQPPSVSGTPGQSVTISCAGANNDIGTYAYVSWYQQLPGTAPKLMIYKVTTRASGIPDRFSGSKSGNTASLTISGLQAEDEADYYCASYRNFNNAVFGTGTKLTVL
# B5: 61B7 (Fab, V domains shown)
# VH: ELQLVESGGGLVQPGGSLRLSCAASGFTFSSYAMSWVRQAPGKGPEWVSRISSGGGSAYYADSVKGRFTISRDNAKNTLYLQMNSLKPEDTAVYYCANRAGWGMGDYWGQGTQVTVSS
# VL: QTVVTQEPSLSVSPGGTVTLTCGLSSGSVTASNYPGWFQQTPGQAPRALIYSTNDRHSGVPSRFSGSISGNKAALTITGAQPEDEADYYCALDIGDITEFGGGTHLTVLG
# notes: Fab
# B6: Fab 24G3 (Fab, V domains shown)
# VH: QLQVVESGGGLVQPGSSLRLSCGASGFTFSSHRMYWVRQPPGKGLEWVSAISSSGVSTYYADSVKGRFTISRDNAKNTVYLQMNSLKPEDTALYYCKRRTWYGGEYDYWGQGTQVTVSS
# VL: QTVVTQEPSLSVSPGGTVTLTCGLSSGSVTASNYPGWFQQTPGQAPRALIYSTNDRHSGVPSRFSGSISGNKAALTITGAQPEDEADYYCALDIGDITEFGGGTHLTVLG
# notes: Fab; also called 28g12(24G3)
# B7: Fab 111A7 with the CDR3 methionine changed to D (Fab, V domains shown)
# VH: EVQLLESGGGLVQPGGSLRLSCAASGFTFSSYAMSWVRQAPGKGPEWVSRISAGGGSTYYGDSVKGRFTISRDNSKNTLYLQMNSLRAEDTAVYYCANRAGWGDGDYWGQGTLVTVSS
# VL: QTVVTQEPSFSVSPGGTVTLTCGLSSGSVTASNYPGWYQQTPGQAPRALIYSTNDRHSGVPDRFSGSISGNKAALTITGAQAEDEADYYCALDIGDITEFGGGTQLTVL
# B8: 61H7 (antibody, V domains shown)
# VH: EVQLVESGGGLVQPGGSLRLSCAASGFTFSSYRMYWVRQPPGKGLEWVSAISAGGGSTYYGDSVKGRFTISRDNAKNTVYLQMNSLKPEDTAVYYCANRAGWGMGDYWGQGTQVTVSS
# VL: QTVVTQEPSLSVSPGGTVTLTCGLSSGSVTASNYPGWFQQTPGQAPRALIYSTNDRHSGVPSRFSGSISGNKAALTITGAQPEDEADYYCALDIGDITEFGGGTHLTVLG
# B9: Fab 24D10 (Fab, V domains shown)
# VH: QLQVVESGGGLVQPGGSLRLSCAASGFTFSSYAMSWVRQAPGKGPEWVSRISSGGGSTSYADSVKGRFTISRDNAKNTLYLQMNSLKPEDTAVYYCANRAGWGMGDYWGQGTQVTVSS
# VL: QTVVTQEPSLSVSPGGTVTLTCGLSSGSVTASNYPGWFQQTPGQAPRALIYSTNDRHSGVPSRFSGSISGNKAALTITGAQPEDEADYYCALDIGDITEFGGGTHLTVLG
# notes: Fab; also called pur24d10; 28f12(24D10)
# B10: Fab 111A7 with the CDR3 methionine changed to G (Fab, V domains shown)
# VH: EVQLLESGGGLVQPGGSLRLSCAASGFTFSSYAMSWVRQAPGKGPEWVSRISAGGGSTYYGDSVKGRFTISRDNSKNTLYLQMNSLRAEDTAVYYCANRAGWGGGDYWGQGTLVTVSS
# VL: QTVVTQEPSFSVSPGGTVTLTCGLSSGSVTASNYPGWYQQTPGQAPRALIYSTNDRHSGVPDRFSGSISGNKAALTITGAQAEDEADYYCALDIGDITEFGGGTQLTVL
# B11: Fab 111A7 with the CDR3 methionine changed to Y (Fab, V domains shown)
# VH: EVQLLESGGGLVQPGGSLRLSCAASGFTFSSYAMSWVRQAPGKGPEWVSRISAGGGSTYYGDSVKGRFTISRDNSKNTLYLQMNSLRAEDTAVYYCANRAGWGYGDYWGQGTLVTVSS
# VL: QTVVTQEPSFSVSPGGTVTLTCGLSSGSVTASNYPGWYQQTPGQAPRALIYSTNDRHSGVPDRFSGSISGNKAALTITGAQAEDEADYYCALDIGDITEFGGGTQLTVL
# B12: Fab 61H7 (Fab, V domains shown)
# VH: EVQLVESGGGLVQPGGSLRLSCAASGFTFSSYRMYWVRQPPGKGLEWVSAISAGGGSTYYGDSVKGRFTISRDNAKNTVYLQMNSLKPEDTAVYYCANRAGWGMGDYWGQGTQVTVSS
# VL: QTVVTQEPSLSVSPGGTVTLTCGLSSGSVTASNYPGWFQQTPGQAPRALIYSTNDRHSGVPSRFSGSISGNKAALTITGAQPEDEADYYCALDIGDITEFGGGTHLTVLG
# notes: Fab; also called pur61H7; 61H7 Fab
# How the values were obtained:
# [1] = biological target: human IL-6 (as added in the B9 and 7TD1 bioassays) (human) (UniProt P05231)
# [2] = biological target: human IL-6 (as added in the B9 and 7TD1 bioassays) (human) (UniProt P05231); test: cell-based or functional assay
# [3] = biological target: human IL-6 (as added in the B9 and 7TD1 bioassays) (human) (UniProt P05231); test: cell-based or functional assay; remark: listed apart in the source
# [4] = biological target: T1, eukaryotically produced human IL-6 (human, UniProt P05231 30-212); test: SPR; purified Fab; IL-6 coated on CM5 chip;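 as to Kd: dissociation rate taken from the wash phase, association rate fitted over the injection phase with analyte concentration and dissociation rate as inputs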
# T1 construct: also called eukIL-6; Euk IL-6
# Procedure: (§1) From the washing phase the off-rate (kd) was determined, while from the injection phase the on-rate (ka) was calculated using the concentration and off-rate as parameters.
# [5] = biological target: T2, bacterially produced human IL-6 (human, UniProt P05231 30-212); test: SPR; purified Fab; IL-6 coated on CM5 chip;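 as to Kd: dissociation rate taken from the wash phase, association rate fitted over the injection phase with analyte concentration and dissociation rate as inputs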
# T2 construct: also called bactIL-6; prokaryotic IL-6
# Procedure: as §1
# [6] = biological target: T1, eukaryotically produced human IL-6; test: SPR; periplasmic fraction
# Procedure: as §1
# [7] = biological target: T2, bacterially produced human IL-6; test: SPR; periplasmic fraction
# Procedure: as §1
# human IL-6 = biological target: T3, human IL-6 (human, UniProt P05231 30-212); test: SPR; periplasmic fraction; average of the IL-6 channels; design: unit not given here
# T3 construct: Used where the text says only IL-6 or human IL-6 (crystals: rh IL-6 from Immunotools; cell assays) and for values averaged over the bacterial and eukaryotic IL-6 channels; also called interleukin-6; rh IL-6
# [8] = biological target: T2, bacterially produced human IL-6; test: SPR; periplasmic fraction; ratio bact to euk IL-6
# Procedure: as §1
# [9] = biological target: T4, human IL-6 (as added in the B9 and 7TD1 bioassays) (human, UniProt P05231 30-212); test: cell-based or functional assay
# [10] = biological target: T4, human IL-6 (as added in the B9 and 7TD1 …); test: cell-based or functional assay; remark: listed apart in the source
# [11] = biological target: T4, human IL-6 (as added in the B9 and 7TD1 …); test: cell-based or functional assay; remark: listed apart in the source
# [12] = biological target: T5, eukaryotically produced human IL-6 (human, UniProt P05231 30-212); test: SPR (Biacore), purified Fab
# T5 construct: Immobilised on the Biacore chip; also called Euk IL-6; EUK IL-6 (3-1)
# [13] = biological target: T6, bacterially produced human IL-6 (human, UniProt P05231 30-212); test: SPR (Biacore), purified Fab
# T6 construct: Immobilised on the Biacore chip; also called BACT IL-6 (2-1); bactIL-6
# [14] = biological target: IL-6 surfaces of Table 8 (Bact, euk, cyno), average; test: SPR (Biacore), off-rate screen
# [15] = biological target: IL-6 (bact-hIL-6, euk-hIL-6 and bact-cy IL-6; 'average binding' of Table 21); test: average binding level in the off-rate screen (unit not given; n = 3)
# [16] = biological target: T7, bacterially produced cynomolgus monkey IL-6 (cynomolgus monkey, UniProt P79341 28-212, limits assumed); test: off-rate of Fab 111A7 variant on bact-cy IL-6 (binding kinetics, SPR presumed; n = 3)
# T7 construct: also called bact-cy IL-6; HIS-cyIL-6
# [17] = biological target: T4, human IL-6 (as added in the B9 and 7TD1 …); test: cell-based or functional assay; remark: listed apart in the source
# [18] = biological target: T2, bacterially produced human IL-6; test: SPR; purified Fab; ratio bact to euk IL-6
# [19] = biological target: T2, bacterially produced human IL-6; test: SPR; purified Fab over biotinylated IL-6 on streptavidin chip
# Procedure: as §1
# [20] = biological target: T1, eukaryotically produced human IL-6; test: SPR; purified Fab
# [21] = biological target: T2, bacterially produced human IL-6; test: SPR; purified Fab
molecule,measurement,setting,value
"CNTO136 (benchmark anti-IL-6 antibody, humanized variant of CNTO328)","IC50 (read off the curve), B9 cell proliferation",[1],0.2 pM
same,"IC50, 7TD1 cells",[2],0.19 pM
same,"Potency relative to 68F2, 7TD1 cells",[2],3.49
B1,"IC50 (read off the curve), B9 cell proliferation",[1],8 pM
same,"IC 50, B9 cell proliferation",[3],5.11 pM
same,"Rel. potency, B9 cells",[3],0.2
B2,Kd,[4],590 pM
same,koff,[4],0.00011 s⁻¹
same,Kd,[5],220 pM
same,koff,[5],4.8e-05 s⁻¹
same,koff,[6],7.6e-05 s⁻¹
same,koff,[7],8.42e-05 s⁻¹
same,average binding,human IL-6,286
same,ratio bact/euk,[8],1.2
B3,koff,[6],3.5e-05 s⁻¹
same,koff,[7],7.71e-05 s⁻¹
same,average binding,human IL-6,43
same,ratio bact/euk,[8],1
B4,"IC50 (read off the curve), B9 cell proliferation",[9],~0.06 pM
same,"IC50, 7TD1 cells (129D3#A1.1)",[10],0.25 pM
same,"IC50, 7TD1 cells (129D3U#15.1)",[10],0.23 pM
same,"Potency relative to 68F2, 7TD1 cells (129D3#A1.1)",[10],2.65
same,"Potency relative to 68F2, 7TD1 cells (129D3U#15.1)",[10],2.91
same,"IC50, 7TD1 proliferation assay, exp 22.06",[11],0.791 pM
same,"IC50, 7TD1 proliferation assay, exp 29.06",[11],0.574 pM
same,"Rel. Potency, 7TD1, exp 29.06",[11],0.98
B5,Kd,[12],200 pM
same,koff,[12],6.6e-05 s⁻¹
same,kon,[12],330000 M⁻¹ s⁻¹
same,Kd,[13],160 pM
same,koff,[13],5.7e-05 s⁻¹
same,kon,[13],350000 M⁻¹ s⁻¹
same,Average binding (RU),[14],597 RU
B6,koff,[6],7.52e-05 s⁻¹
same,koff,[7],0.000112 s⁻¹
same,average binding,human IL-6,46
same,ratio bact/euk,[8],0.96
B7,average binding,[15],112
same,koff,[16],0.000234 s⁻¹
B8,"IC50 (read off the curve), B9 cell proliferation",[9],~1 pM
same,"IC50, 7TD1 cells (batch A8.11)",[10],3.48 pM
same,"Potency relative to 68F2, 7TD1 cells (batch A8.11)",[10],0.19
same,"IC 50, B9 cell proliferation (batch 12.8)",[17],1.83 pM
same,"IC 50, B9 cell proliferation (batch A8.11)",[17],1.57 pM
B9,ratio bact/euk,[18],1.14
same,Kd,[4],850 pM
same,koff,[4],0.00017 s⁻¹
same,Kd,[5],1200 pM
same,koff,[5],0.00019 s⁻¹
same,koff,[6],0.000144 s⁻¹
same,koff,[7],0.000183 s⁻¹
same,average binding,human IL-6,167
same,Ka,[19],3.7e+09 M⁻¹
same,Kd,[19],270 pM
same,koff,[19],1.69e-05 s⁻¹
same,kon,[19],62700 M⁻¹ s⁻¹
same,ratio bact/euk,[8],1.09
same,koff,[20],0.000125 s⁻¹
same,koff,[21],0.000143 s⁻¹
B10,average binding,[15],109
same,koff,[16],0.000205 s⁻¹
B11,average binding,[15],104
same,koff,[16],0.000158 s⁻¹
B12,ratio bact/euk,[18],1.13
same,koff,[20],3.68e-05 s⁻¹
same,koff,[21],4.22e-05 s⁻¹

# Reference: US20220073604A1 (ARGENX BVBA, published 2022)
